The target in assay [1] is T1, Recombinant Human TNF-α/TNFSF1A (human, UniProt P01375 77-233). The assay is described as follows: cell-based or functional assay.
For assay [2], the target named is T1, Recombinant Human TNF-α/TNFSF1A. Nature of the assay: SPR (BIACORE), antibody captured, TNFα in solution. On the procedure: The BIACORE assay (Biacore, Inc, Piscataway, N.J.) determines the affinity of antibodies with kinetic measurements of on-rate and off-rate constants. Binding of antibodies to a target antigen (for example, a purified recombinant target antigen) is determined by surface plasmon resonance-based measurements with a Biacore® 1000 or 3000 instrument (Biacore® AB, Uppsala, Sweden) using running HBS-EP (10 mM HEPES [pH 7.4], 150 mM NaCl, 3 mM EDTA, and 0.005% surfactant P20) at 25° C. All chemicals are obtained from Biacore® AB (Uppsala, Sweden) or otherwise from a different source as described. For example, approximately 5000 RU of goat anti-mouse IgG, (Fcγ), fragment specific polyclonal antibody (Pierce Biotechnology Inc, Rockford, Ill.) diluted in 10 mM sodium acetate (pH 4.5) is directly immobilized across a CM5 research grade biosensor chip using a standard amine coupling kit according to manufacturer's instructions and procedures at 25 μg/ml. Unreacted moieties on the biosensor surface are blocked with ethanolamine. Modified carboxymethyl dextran surface in flowcell 2 and 4 is used as a reaction surface. Unmodified carboxymethyl dextran without goat anti-mouse IgG in flow cell 1 and 3 is used as the reference surface. For kinetic analysis, rate equations derived from the 1:1 Langmuir binding model are fitted simultaneously to association and dissociation phases of all eight injections (using global fit analysis) with the use of Biaevaluation 4.0.1 software. Purified antibodies are diluted in HEPES-buffered saline for capture across goat anti-mouse IgG specific reaction surfaces. Antibodies to be captured as a ligand (25 μg/ml) are injected over reaction matrices at a flow rate of 5 μl/minute. The association and dissociation rate constants, kₒₙ (M⁻¹ s⁻¹) and koff (s⁻¹), are determined under a continuous flow rate of 25 μl/minute. Rate constants are derived by making kinetic binding measurements at different antigen concentrations ranging from 10-200 nM. The equilibrium dissociation constant (M) of the reaction between antibodies and the target antigen is then calculated from the kinetic rate constants by the following formula: KD=koff/kₒₙ. Binding is recorded as a function of time and kinetic rate constants are calculated. In this assay, on-rates as fast as 10⁶ M⁻¹ s⁻¹ and off-rates as slow as 10⁻⁶ s⁻¹ can be measured.

The values that follow come from US20150111251A1 (AbbVie / Abbott, published 2015).

T1 sequence (P01375 77-233 limits assumed): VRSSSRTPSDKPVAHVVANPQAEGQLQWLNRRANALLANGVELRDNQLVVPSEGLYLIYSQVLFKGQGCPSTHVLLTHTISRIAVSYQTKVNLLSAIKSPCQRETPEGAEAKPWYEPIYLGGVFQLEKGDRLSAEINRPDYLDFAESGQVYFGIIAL

B1: AB353 (antibody, V domains shown)
VH: EVQLVQSGSELKKPGASVKVSCKASGYTFTNYGMNWVRQAPGQGLEWMGWINTYTGEPTYADDFKGRFVFSLDTSVSTAYLQISSLKAEDTAVYYCARKFLTTVVVTDYAMDYWGQGTTVTVSS
VL: DIQMTQSPSSLSASVGDRVTITCRASQDISNYLNWYQQKPGKAPKLLIYYTSRLQSGVPSRFSGSGSGTDYTLTISSLQPEDFATYYCQQGNTLPPTFGQGTKLEIK
notes: Full-length humanized antibody made in HEK 293-6E; also called hMAK199VH.1/hMAK199VL.1b
In the case of B1, the “TNFα Neutralization Assay IC50 nM (L929 cells)” value in assay [1] was found to be 0.66 nM. For the same molecule, in assay [2], the Kd amounted to 0.46 nM, the koff amounted to 0.00092 s⁻¹ and the kon was found to be 2e+06 M⁻¹ s⁻¹.

B2: AB351 (antibody, V domains shown)
VH: EVQLVQSGSELKKPGASVKVSCKASGYTFTNYGMNWVRQAPGQGLEWMGWINTYTGEPTYADDFKGRFVFSLDTSVSTAYLQISSLKAEDTAVYYCARKFLTTVVVTDYAMDYWGQGTTVTVSS
VL: DIQMTQSPSSLSASVGDRVTITCRASQDISNYLNWYQQKPGKAPKLLIYYTSRLQSGVPSRFSGSGSGTDFTLTISSLQPEDFATYYCQQGNTLPPTFGQGTKLEIK
notes: Full-length humanized antibody made in HEK 293-6E; also called hMAK199VH.1/hMAK199VL.1
On to B2, for which the “TNFα Neutralization Assay IC50 nM (L929 cells)” value in assay [1] is 1.06 nM. Moreover, in assay [2], the koff was 0.00068 s⁻¹ and the kon stood at 2e+06 M⁻¹ s⁻¹.

B3: AB352 (antibody, V domains shown)
VH: EVQLVQSGSELKKPGASVKVSCKASGYTFTNYGMNWVRQAPGQGLEWMGWINTYTGEPTYADDFKGRFVFSLDTSVSTAYLQISSLKAEDTAVYYCARKFLTTVVVTDYAMDYWGQGTTVTVSS
VL: DIQMTQSPSSLSASVGDRVTITCRASQDISNYLNWYQQKPGKTVKLLIYYTSRLQSGVPSRFSGSGSGTDYTLTISSLQPEDFATYFCQQGNTLPPTFGQGTKLEIK
notes: Full-length humanized antibody made in HEK 293-6E; also called hMAK199VH.1/hMAK199VL.1a
Consider B3, for which the “TNFα Neutralization Assay IC50 nM (L929 cells)” value in assay [1] was 0.35 nM. In assay [2], the Kd came to 0.45 nM, the koff turned out to be 0.00094 s⁻¹ and the kon is 2.1e+06 M⁻¹ s⁻¹.

B4: AB363 (antibody, V domains shown)
VH: EVQLVQSGSELKKPGASVKVSCKASGYTFTNYGMNWVRQAPGQGLEWMGWINTYTGEPTYADDFKGRFVFSLDTSVSTAYLQISSLKAEDTAVYFCARKFLTTVVVTDYAMDYWGQGTTVTVSS
VL: DIQMTQSPSSLSASVGDRVTITCRASQDISNYLNWYQQKPGKAPKLLIYYTSRLQSGVPSRFSGSGSGTDFTLTISSLQPEDFATYYCQQGNTLPPTFGQGTKLEIK
notes: Full-length humanized antibody made in HEK 293-6E; also called hMAK199VH.1b/hMAK199VL.1
As for B4, the “TNFα Neutralization Assay IC50 nM (L929 cells)” value in assay [1] was determined as 0.32 nM. In assay [2], the dissociation constant (Kd) turned out to be 0.86 nM, the koff stood at 0.0012 s⁻¹ and the kon turned out to be 1.4e+06 M⁻¹ s⁻¹.

B5: AB366 (antibody, V domains shown)
VH: EVQLVQSGSELKKPGASVKVSCKASGYTFTNYGMNWVRQAPGQGLEWMGWINTYTGEPTYADDFKGRFVFSLDTSVSTAYLQISSLKAEDTAVYFCARKFLTTVVVTDYAMDYWGQGTTVTVSS
VL: DVVMTQSPAFLSVTPGEKVTITCRASQDISNYLNWYQQKPDQAPKLLIKYTSRLQSGVPSRFSGSGSGTDFTFTISSLEAEDAATYYCQQGNTLPPTFGQGTKLEIK
notes: Full-length humanized antibody made in HEK 293-6E; also called hMAK199VH.1b/hMAK199VL.2
Regarding B5, in assay [2], the Kd came out at 0.93 nM, the koff is 0.0015 s⁻¹ and the kon was 1.6e+06 M⁻¹ s⁻¹.

B6: AB354 (antibody, V domains shown)
VH: EVQLVQSGSELKKPGASVKVSCKASGYTFTNYGMNWVRQAPGQGLEWMGWINTYTGEPTYADDFKGRFVFSLDTSVSTAYLQISSLKAEDTAVYYCARKFLTTVVVTDYAMDYWGQGTTVTVSS
VL: DVVMTQSPAFLSVTPGEKVTITCRASQDISNYLNWYQQKPDQAPKLLIKYTSRLQSGVPSRFSGSGSGTDFTFTISSLEAEDAATYYCQQGNTLPPTFGQGTKLEIK
notes: Full-length humanized antibody made in HEK 293-6E; also called hMAK199VH.1/hMAK199VL.2
Take B6: in assay [2], the Kd stood at 0.52 nM, the koff came to 0.001 s⁻¹ and the kon is 2e+06 M⁻¹ s⁻¹.

B7: AB360 (antibody, V domains shown)
VH: EIQLVQSGSELKKPGASVKVSCKASGYTFTNYGMNWVRQAPGQGLEWMGWINTYTGEPTYADDFKGRFVFSLDTSVSTAYLQISSLKAEDTAVYFCARKFLTTVVVTDYAMDYWGQGTTVTVSS
VL: DVVMTQSPAFLSVTPGEKVTITCRASQDISNYLNWYQQKPDQAPKLLIKYTSRLQSGVPSRFSGSGSGTDFTFTISSLEAEDAATYYCQQGNTLPPTFGQGTKLEIK
notes: Full-length humanized antibody made in HEK 293-6E; also called hMAK199VH.1a/hMAK199VL.2
For the molecule B7, in assay [2], the Kd came out at 0.78 nM, the koff came to 0.00097 s⁻¹ and the kon is 1.2e+06 M⁻¹ s⁻¹.

B8: AB357 (antibody, V domains shown)
VH: EIQLVQSGSELKKPGASVKVSCKASGYTFTNYGMNWVRQAPGQGLEWMGWINTYTGEPTYADDFKGRFVFSLDTSVSTAYLQISSLKAEDTAVYFCARKFLTTVVVTDYAMDYWGQGTTVTVSS
VL: DIQMTQSPSSLSASVGDRVTITCRASQDISNYLNWYQQKPGKAPKLLIYYTSRLQSGVPSRFSGSGSGTDFTLTISSLQPEDFATYYCQQGNTLPPTFGQGTKLEIK
notes: Full-length humanized antibody made in HEK 293-6E; also called hMAK199VH.1a/hMAK199VL.1
With B8, in assay [1], the “TNFα Neutralization Assay IC50 nM (L929 cells)” value is 1.94 nM. Also, in assay [2], the Kd was determined as 0.67 nM, the koff was 0.0013 s⁻¹ and the kon is 1.9e+06 M⁻¹ s⁻¹.

B9: AB359 (antibody, V domains shown)
VH: EIQLVQSGSELKKPGASVKVSCKASGYTFTNYGMNWVRQAPGQGLEWMGWINTYTGEPTYADDFKGRFVFSLDTSVSTAYLQISSLKAEDTAVYFCARKFLTTVVVTDYAMDYWGQGTTVTVSS
VL: DIQMTQSPSSLSASVGDRVTITCRASQDISNYLNWYQQKPGKAPKLLIYYTSRLQSGVPSRFSGSGSGTDYTLTISSLQPEDFATYYCQQGNTLPPTFGQGTKLEIK
notes: Full-length humanized antibody made in HEK 293-6E; also called hMAK199VH.1a/hMAK199VL.1b
For the molecule B9, the “TNFα Neutralization Assay IC50 nM (L929 cells)” value in assay [1] worked out at 3.78 nM. In assay [2], the dissociation constant (Kd) is 0.73 nM, the koff amounted to 0.00093 s⁻¹ and the kon came out at 1.3e+06 M⁻¹ s⁻¹.

B10: AB364 (antibody, V domains shown)
VH: EVQLVQSGSELKKPGASVKVSCKASGYTFTNYGMNWVRQAPGQGLEWMGWINTYTGEPTYADDFKGRFVFSLDTSVSTAYLQISSLKAEDTAVYFCARKFLTTVVVTDYAMDYWGQGTTVTVSS
VL: DIQMTQSPSSLSASVGDRVTITCRASQDISNYLNWYQQKPGKTVKLLIYYTSRLQSGVPSRFSGSGSGTDYTLTISSLQPEDFATYFCQQGNTLPPTFGQGTKLEIK
notes: Full-length humanized antibody made in HEK 293-6E; also called hMAK199VH.1b/hMAK199VL.1a
In the case of B10, the “TNFα Neutralization Assay IC50 nM (L929 cells)” value in assay [1] turned out to be 0.35 nM. For the same molecule, in assay [2], the Kd was 0.89 nM, the koff was determined as 0.0011 s⁻¹ and the kon amounted to 1.2e+06 M⁻¹ s⁻¹.

B11: AB358 (antibody, V domains shown)
VH: EIQLVQSGSELKKPGASVKVSCKASGYTFTNYGMNWVRQAPGQGLEWMGWINTYTGEPTYADDFKGRFVFSLDTSVSTAYLQISSLKAEDTAVYFCARKFLTTVVVTDYAMDYWGQGTTVTVSS
VL: DIQMTQSPSSLSASVGDRVTITCRASQDISNYLNWYQQKPGKTVKLLIYYTSRLQSGVPSRFSGSGSGTDYTLTISSLQPEDFATYFCQQGNTLPPTFGQGTKLEIK
notes: Full-length humanized antibody made in HEK 293-6E; also called hMAK199VH.1a/hMAK199VL.1a
As to B11, in assay [1], the “TNFα Neutralization Assay IC50 nM (L929 cells)” value came to 0.21 nM. In assay [2], the Kd came out at 0.7 nM, the koff turned out to be 0.00097 s⁻¹ and the kon stood at 1.4e+06 M⁻¹ s⁻¹.

B12: AB384 (antibody, V domains shown)
VH: EIQLVQSGAEVKKPGASVKVSCKASGYTFTNYGMNWVRQAPGQGLEWMGWINTYTGEPTYADDFKGRVTFTTDTSTSTAYMELSSLRSEDTAVYYCARKFLTTVVVTDYAMDYWGQGTTVTVSS
VL: DVVMTQSPAFLSVTPGEKVTITCRASQDISNYLNWYQQKPDQAPKLLIKYTSRLQSGVPSRFSGSGSGTDFTFTISSLEAEDAATYYCQQGNTLPPTFGQGTKLEIK
notes: Full-length humanized antibody made in HEK 293-6E; also called hMAK199VH.2b/hMAK199VL.2
Take B12: in assay [2], the Kd was 2.1 nM, the koff amounted to 0.0014 s⁻¹ and the kon was 660000 M⁻¹ s⁻¹.

B13: AB372 (antibody, V domains shown)
VH: EVQLVQSGAEVKKPGASVKVSCKASGYTFTNYGMNWVRQAPGQGLEWMGWINTYTGEPTYADDFKGRVTMTTDTSTSTAYMELSSLRSEDTAVYYCARKFLTTVVVTDYAMDYWGQGTTVTVSS
VL: DVVMTQSPAFLSVTPGEKVTITCRASQDISNYLNWYQQKPDQAPKLLIKYTSRLQSGVPSRFSGSGSGTDFTFTISSLEAEDAATYYCQQGNTLPPTFGQGTKLEIK
notes: Full-length humanized antibody made in HEK 293-6E; also called hMAK199VH.2/hMAK199VL.2
As for B13, in assay [2], the Kd is 1.2 nM, the koff was 0.0011 s⁻¹ and the kon is 950000 M⁻¹ s⁻¹.

B14: AB378 (antibody, V domains shown)
VH: EIQLVQSGAEVKKPGASVKVSCKASGYTFTNYGMNWVRQAPGQGLEWMGWINTYTGEPTYADDFKGRFTFTLDTSTSTAYMELSSLRSEDTAVYFCARKFLTTVVVTDYAMDYWGQGTTVTVSS
VL: DVVMTQSPAFLSVTPGEKVTITCRASQDISNYLNWYQQKPDQAPKLLIKYTSRLQSGVPSRFSGSGSGTDFTFTISSLEAEDAATYYCQQGNTLPPTFGQGTKLEIK
notes: Full-length humanized antibody made in HEK 293-6E; also called hMAK199VH.2a/hMAK199VL.2
Take B14: in assay [2], the dissociation constant Kd worked out at 1.4 nM, the koff came to 0.0013 s⁻¹ and the kon came out at 880000 M⁻¹ s⁻¹.
